Source: article PMC8062530

Target: Siglec-9, Siglec-10, and Siglec-14
Assay: BLI; Fc-fusions of the Siglec proteins immobilised on Protein A biosensors (ForteBio) at 5 µg/mL; PTGFRN extracellular domain in 2-fold serial dilutions starting at 100 µg/mL; equilibrium dissociation constants calculated with ForteBio Data Analysis software v. 10.0

- Kd: 0.7 to 4 µM
B1: extracellular domain of PTGFRN (aa 26-832) with a C-terminal histidine tag (domain or fragment)
chain: VPTATLVRVVGTELVIPCNVSDYDGPSEQNFDWSFSSLGSSFVELASTWEVGFPAQLYQERLQRGEILLRRTANDAVELHIKNVQPSDQGHYKCSTPSTDATVQGNYEDTVQVKVLADSLHVGPSARPPPSLSLREGEPFELRCTAASASPLHTHLALLWEVHRGPARRSVLALTHEGRFHPGLGYEQRYHSGDVRLDTVGSDAYRLSVSRALSADQGSYRCIVSEWIAEQGNWQEIQEKAVEVATVVIQPSVLRAAVPKNVSVAEGKELDLTCNITTDRADDVRPEVTWSFSRMPDSTLPGSRVLARLDRDSLVHSSPHVALSHVDARSYHLLVRDVSKENSGYYYCHVSLWAPGHNRSWHKVAEAVSSPAGVGVTWLEPDYQVYLNASKVPGFADDPTELACRVVDTKSGEANVRFTVSWYYRMNRRSDNVVTSELLAVMDGDWTLKYGERSKQRAQDGDFIFSKEHTDTFNFRIQRTTEEDRGNYYCVVSAWTKQRNNSWVKSKDVFSKPVNIFWALEDSVLVVKARQPKPFFAAGNTFEMTCKVSSKNIKSPRYSVLIMAEKPVGDLSSPNETKYIISLDQDSVVKLENWTDASRVDGVVLEKVQEDEFRYRMYQTQVSDAGLYRCMVTAWSPVRGSLWREAATSLSNPIEIDFQTSGPIFNASVHSDTPSVIRGDLIKLFCIITVEGAALDPDDMAFDVSWFAVHSFGLDKAPVLLSSLDRKGIVTTSRRDWKSDLSLERVSVLEFLLQVHGSEDQDFGNYYCSVTPWVKSPTGSWQKEAEIHSKPVFITVKMDVLNAFKYP
